Assay results from US20110150914A1, “COMPOSITIONS AND METHODS FOR DENGUE VIRUS (DV) TREATMENT AND VACCINATION” (priority 2008, published 2011).

Target: H-2 D^b (mouse; human), P61769

Row | Binder | IC50 [nM]
1 | LAVTIMAIL (modifications not checked) [NS2A145-153] | 644
2 | VAFLRFLTI (modifications not checked) [C51-59] | 1380
3 | RMLINRFTM (modifications not checked) [NS5237-45] | 21
4 | VAVSFVTLI (modifications not checked) [NS2A36-44] | 997
5 | RALIFILL (modifications not checked) [M60-67] | > 2000
6 | YSQVNPITL (modifications not checked) [NS4B99-107] | 1.3
7 | GMLQGRGPL (modifications not checked) [C36-44] | 820
8 | FSLGVLGM (modifications not checked) [NS2A8-15] | 1800
9 | TAIANQATV (modifications not checked) [NS4B66-74] | 1.3

Target: H-2 K^b (mouse; human), P61769

Row | Binder | IC50 [nM]
10 | LAVTIMAIL (modifications not checked) [NS2A145-153] | > 2000
11 | VAFLRFLTI (modifications not checked) [C51-59] | 20
12 | RMLINRFTM (modifications not checked) [NS5237-45] | > 2000
13 | VSWTMKIL (modifications not checked) [E451-458] | 458
14 | VAVSFVTLI (modifications not checked) [NS2A36-44] | 12
15 | RALIFILL (modifications not checked) [M60-67] | 22
16 | YSQVNPITL (modifications not checked) [NS4B99-107] | 1890
17 | MTMRCIGI (modifications not checked) [E-2-6] | 1080
18 | GMLQGRGPL (modifications not checked) [C36-44] | 1340
19 | TAIANQATV (modifications not checked) [NS4B66-74] | > 2000
